{"source": "paper PMC9632566", "about": "(Nature Communications, 2022)", "binders": {"B1": {"name": "DA05A30 (antibody, V domains shown)", "VH": "EVQLVESGAEVKKPGESLKISCQGSGYRFSSHWIVWVRQMPGKGLEWMGIIYPGDSDTRYSPSFQGQVTISTDKSNAYLQWSSLKASDTGMYYCARHPQPYGSGYYGEFDYWGQGTLVTVSS", "VL": "DIQMTQPPSVSGAPGQRVTISCTGSSSNIGAGYDVYWYQQFPGTAPKLLIYANDNRPSGVPDRFSGSKSGTSASLVITGLQAEDEADYYCQSYDSSLSGSVVFGGGTKLTVL"}}, "molecular_target": "NA of A/California/04/2009 (A/H1N1pdm09) (Influenza A virus A/California/04/2009 …, strain)", "test": "ELISA", "settings": "one partner purified", "data": [{"binder": "B1", "values": [{"measurement": "binding result", "value": "binds"}]}]}
